Assays:
[1] = target: T1, recombinant human IL1RAP protein (human, UniProt Q9NPH3 21-359, limits assumed); assay: ELISA; 1 µg/ml recombinant IL1RAP coated; antibody in three-fold dilutions from 1 µg/ml; HRP-anti-human FC detection
T1 construct: also called recombinant IL1RAP protein; Interleukin-1 receptor accessory protein
Procedure: Purified antibodies in three-fold serial dilution starting from 1 μg/ml are added to each well. HRP-anti-human FC antibody is used as detection antibody.

[2] = target: T1, recombinant human IL1RAP protein; assay: method not given
[3] = target: T1, recombinant human IL1RAP protein; assay: SPR, Biacore T100
CD3 on T cells = target: T2, CD3 on T cells (Homo sapiens (Human), UniProt P07766 23-207; P04234 22-171; P09693 23-182; P20963 22-164); assay: flow cytometry: T cells incubated with 1D5 in place of the bispecific antibody, then his-tagged recombinant IL1RAP, detection with FITC-anti-his antibody
T2 construct: also called T cell co-receptor CD3

[4] = target: T1, recombinant human IL1RAP protein; assay: ELISA: recombinant IL1RAP protein coated at 1 ug/ml, purified IgG in three-fold serial dilution, HRP-anti-human FC detection, OD450

T1 sequence (Q9NPH3 21-359 limits assumed): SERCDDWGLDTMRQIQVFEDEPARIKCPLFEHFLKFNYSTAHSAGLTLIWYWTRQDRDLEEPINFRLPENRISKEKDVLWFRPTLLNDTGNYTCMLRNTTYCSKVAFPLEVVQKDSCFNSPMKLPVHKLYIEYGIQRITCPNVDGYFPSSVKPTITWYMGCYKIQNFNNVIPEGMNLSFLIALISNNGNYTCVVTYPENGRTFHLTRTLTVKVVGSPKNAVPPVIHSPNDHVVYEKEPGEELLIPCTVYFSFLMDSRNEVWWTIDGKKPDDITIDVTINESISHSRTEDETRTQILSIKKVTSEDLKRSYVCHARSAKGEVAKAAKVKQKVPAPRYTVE
T2 sequence (P07766 23-207 limits assumed, chain 1 of 4): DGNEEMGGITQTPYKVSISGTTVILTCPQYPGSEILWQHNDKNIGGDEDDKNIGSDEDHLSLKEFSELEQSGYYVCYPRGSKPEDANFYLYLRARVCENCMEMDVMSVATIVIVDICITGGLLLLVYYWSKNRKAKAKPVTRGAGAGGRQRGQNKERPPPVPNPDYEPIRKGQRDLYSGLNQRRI
T2 sequence (P04234 22-171 limits assumed, chain 2 of 4): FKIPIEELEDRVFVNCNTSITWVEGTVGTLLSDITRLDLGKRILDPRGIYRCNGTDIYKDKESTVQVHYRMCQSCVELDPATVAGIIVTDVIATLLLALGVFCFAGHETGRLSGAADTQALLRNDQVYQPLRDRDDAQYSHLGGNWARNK
T2 sequence (P09693 23-182 limits assumed, chain 3 of 4): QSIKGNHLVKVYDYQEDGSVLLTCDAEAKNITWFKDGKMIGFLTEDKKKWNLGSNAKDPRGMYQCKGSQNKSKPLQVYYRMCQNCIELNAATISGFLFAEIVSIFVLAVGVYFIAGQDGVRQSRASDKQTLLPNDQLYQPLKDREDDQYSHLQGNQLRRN
T2 sequence (P20963 22-164 limits assumed, chain 4 of 4): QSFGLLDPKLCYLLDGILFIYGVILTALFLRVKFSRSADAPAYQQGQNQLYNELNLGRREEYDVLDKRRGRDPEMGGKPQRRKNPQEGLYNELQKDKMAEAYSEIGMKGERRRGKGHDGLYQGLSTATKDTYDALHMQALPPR

Row | EC50 [1] | Kd [2] | Kd [3] | binding result (CD3 on T cells) | EC50 (read off the curve) [4] | Binder
1 | 0.0049 µg/mL | ~20 nM | 21.2 nM | no binding | – | human monoclonal antibody 1D5 (anti-IL1RAP) (antibody, V domains shown, also called clone ID5) VH: QVQLVQSGAEVKKPGESLKISCKGSGYSFSSHWIGWVRQMPGKGLEWMGIIYPGDSDTRYSPSFQGQVTISADKSISTAYLQWSSLKASDTAMYYCARGELPGEAYYFDNWGQGTLVTVSS VL: not shown
2 | – | – | – | – | ~0.1 µg/mL | D1A4 (antibody, V domains shown) VH: PGPLVQSGAEVKKPGASVKVSCTTSGFPFNMYGFNWVRQAPGQGLEWMGWISAYNGRTNYAQKFQGRVTMTTDTSTSTSYVELESLTSDDTAVYYCARSGKQQLGSAQPLDSWGQGTLIIVSS VL: not shown
3 | – | – | – | – | ~0.09 µg/mL | 2E12 (antibody, V domains shown) VH: GGGLVQPGGSLRLSCEASGFTFSRYWMHWVRQAPGKGLVWVSRIHTDGSSISYADSVKGRFTISRDNAKNTLYLQMNSLRAEDTAVYYCARDIGGGYSYGSVDYWGQGTLVTVSS VL: QPVLTQSPSVSVAPGKTTRITCGGDNIGSKSVHWFQQKPGQAPVLVVFGGGDRPSGIPERFSGSNSGNTATLIISGVEGGDEADYYCQVWDGSTDHYIFGAGTMVTVL

Source: patent US20200247893A1 (CITY OF HOPE, published 2020)
